Our source for the Kd values is doi:10.1101/2021.12.08.471876 (bioRxiv, 2021).

The target in assay [1] is T1, purified recombinant GRP78 protein (GRP78-His) (human, UniProt P11021 19-654, NT-647 fluorescent label (in the MST only)). Briefly: ITC. (In general: In ITC the heat of successive injections is recorded.)
The target of assay [2] is T1, purified recombinant GRP78 protein …. Briefly: MST.

T1 sequence (P11021 19-654): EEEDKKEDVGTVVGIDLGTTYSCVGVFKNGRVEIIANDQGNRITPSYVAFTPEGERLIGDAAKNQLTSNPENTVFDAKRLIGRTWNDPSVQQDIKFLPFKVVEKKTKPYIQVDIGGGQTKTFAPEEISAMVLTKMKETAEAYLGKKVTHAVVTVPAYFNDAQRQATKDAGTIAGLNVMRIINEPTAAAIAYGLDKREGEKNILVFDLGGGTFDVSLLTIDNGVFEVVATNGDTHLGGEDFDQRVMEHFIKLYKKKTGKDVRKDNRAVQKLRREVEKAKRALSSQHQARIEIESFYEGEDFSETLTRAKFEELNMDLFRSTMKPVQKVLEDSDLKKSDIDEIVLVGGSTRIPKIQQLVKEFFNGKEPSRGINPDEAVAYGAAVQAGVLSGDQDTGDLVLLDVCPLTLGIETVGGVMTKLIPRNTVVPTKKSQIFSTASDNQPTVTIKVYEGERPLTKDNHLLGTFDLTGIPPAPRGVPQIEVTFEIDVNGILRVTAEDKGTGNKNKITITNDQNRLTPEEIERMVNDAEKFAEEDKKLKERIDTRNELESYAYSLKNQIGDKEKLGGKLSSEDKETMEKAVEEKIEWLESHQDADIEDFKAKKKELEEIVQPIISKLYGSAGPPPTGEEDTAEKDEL

As usually defined, the Kd is the free concentration of one partner at which half of the binding sites on the other are occupied at equilibrium, for simple one-to-one binding. With DPAFGANSL [pep56], in assay [1], the Kd is 6.59 nM.

B1: GST-preS1 truncated protein preS1-p3 (residues 66-119) (domain or fragment)
chain: GFTPPHGGLLGWSPQAQGILTTLPAAPPPASTNRQSGRQPTPISPPLRDSHPQA
Consider B1, for which, in assay [2], the dissociation constant Kd was determined as 431 nM.

B2: GST-preS1 truncated protein preS1-p2 (residues 25-90) (domain or fragment)
chain: FPDHQLDPAFGANSNNPDWDFNPNKDHWPEANQVGAGAFGPGFTPPHGGLLGWSPQAQGILTTLPA
As to B2, the Kd in assay [2] was found to be 1200 nM.
Consider QGIMQTVPAN [pep59], for which the Kd in assay [1] stood at 10.6 nM.
